Earlier results, collected in patent publication US6294648A, “Protein having proteinase inhibitor activity” (Bayer Corporation, priority 1999, dated 2001).
Read-outs that look alike come from different tables or passages of the source. Each block holds one molecule with its values, some of them ahead of it.

How the values were obtained:
leukocyte elastase = biological target: T1, leukocyte elastase (Homo sapiens, UniProt P08246)
T1 sequence (P08246 30-267): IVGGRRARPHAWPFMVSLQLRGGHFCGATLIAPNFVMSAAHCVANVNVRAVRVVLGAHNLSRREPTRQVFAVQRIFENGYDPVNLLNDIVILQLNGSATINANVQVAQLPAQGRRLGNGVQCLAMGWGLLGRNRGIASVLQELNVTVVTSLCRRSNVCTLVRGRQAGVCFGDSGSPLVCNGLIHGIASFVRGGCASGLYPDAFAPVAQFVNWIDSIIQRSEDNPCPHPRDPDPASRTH

proteinase 3 = biological target: T2, proteinase 3 (Homo sapiens, UniProt P24158)
T2 sequence (P24158 28-256): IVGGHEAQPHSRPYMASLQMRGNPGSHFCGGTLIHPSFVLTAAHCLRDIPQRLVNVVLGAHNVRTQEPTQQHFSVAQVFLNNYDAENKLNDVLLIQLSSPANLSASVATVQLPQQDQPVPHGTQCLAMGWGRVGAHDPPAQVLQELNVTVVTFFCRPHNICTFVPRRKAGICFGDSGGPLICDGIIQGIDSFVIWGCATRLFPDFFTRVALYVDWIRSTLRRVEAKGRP

plasmin = plasmin (Homo sapiens, UniProt P00747)
Sequence of plasmin (P00747 581-810 limits assumed, species assumed): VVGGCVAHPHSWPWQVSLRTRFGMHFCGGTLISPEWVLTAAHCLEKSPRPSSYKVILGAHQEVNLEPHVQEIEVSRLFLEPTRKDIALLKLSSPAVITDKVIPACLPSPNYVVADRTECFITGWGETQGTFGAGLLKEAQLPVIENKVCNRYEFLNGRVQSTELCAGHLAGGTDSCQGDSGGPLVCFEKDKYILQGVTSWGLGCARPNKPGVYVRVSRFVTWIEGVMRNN
Sequence of plasmin (P00747 97-580 partner limits assumed, species assumed): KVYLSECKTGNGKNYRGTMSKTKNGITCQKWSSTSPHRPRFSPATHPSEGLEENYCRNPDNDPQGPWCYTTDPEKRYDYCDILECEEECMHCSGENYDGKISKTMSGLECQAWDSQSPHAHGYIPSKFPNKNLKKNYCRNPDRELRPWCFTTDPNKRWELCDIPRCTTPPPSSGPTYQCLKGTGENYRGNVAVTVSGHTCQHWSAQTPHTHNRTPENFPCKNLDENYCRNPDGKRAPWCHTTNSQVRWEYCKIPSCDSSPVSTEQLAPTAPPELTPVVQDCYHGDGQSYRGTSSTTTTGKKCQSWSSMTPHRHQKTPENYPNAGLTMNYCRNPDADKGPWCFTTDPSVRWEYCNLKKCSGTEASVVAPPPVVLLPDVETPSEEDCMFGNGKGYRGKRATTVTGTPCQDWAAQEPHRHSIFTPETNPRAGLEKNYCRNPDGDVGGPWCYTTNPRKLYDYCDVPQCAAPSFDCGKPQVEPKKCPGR

trypsin = biological target: T3, trypsin (Bos taurus, UniProt P00760)
T3 construct: gene PRSS1
T3 sequence (P00760 24-246): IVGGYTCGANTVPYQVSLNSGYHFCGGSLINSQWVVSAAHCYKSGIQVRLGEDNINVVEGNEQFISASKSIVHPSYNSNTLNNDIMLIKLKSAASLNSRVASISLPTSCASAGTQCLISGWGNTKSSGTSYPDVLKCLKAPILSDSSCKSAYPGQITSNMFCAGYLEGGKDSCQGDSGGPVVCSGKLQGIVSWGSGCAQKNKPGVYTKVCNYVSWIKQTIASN

cathepsin G = biological target: T4, cathepsin G (Homo sapiens, UniProt P08311)
T4 sequence (P08311 21-255): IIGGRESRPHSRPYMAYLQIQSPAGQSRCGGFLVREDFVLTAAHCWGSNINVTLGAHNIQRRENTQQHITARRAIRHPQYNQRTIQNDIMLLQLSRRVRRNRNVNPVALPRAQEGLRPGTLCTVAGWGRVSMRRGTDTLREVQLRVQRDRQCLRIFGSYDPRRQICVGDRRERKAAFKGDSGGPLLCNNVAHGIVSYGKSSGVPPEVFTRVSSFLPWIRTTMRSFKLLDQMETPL

[1] = tested on: neutrophil-induced ECM solubilization
[2] = tested on: leukocyte elastase-induced emphysema; conditions: hamsters

B1: Monocyte/neutrophil elastase inhibitor: a serpin family inhibitor (protein, UniProt P30740 1-379, looked up)
Leukocyte elastase inhibitor: MEQLSSANTRFALDLFLALSENNPAGNIFISPFSISSAMAMVFLGTRGNTAAQLSKTFHFNTVEEVHSRFQSLNADINKRGASYILKLANRLYGEKTYNFLPEFLVSTQKTYGADLASVDFQHASEDARKTINQWVKGQTEGKIPELLASGMVDNMTKLVLVNAIYFKGNWKDKFMKEATTNAPFRLNKKDRKTVKMMYQKKKFAYGYIEDLKCRVLELPYQGEELSMVILLPDDIEDESTGLKKIEEQLTLEKLHEWTKPENLDFIEVNVSLPRFKLEESYTLNSDLARLGVQDLFNSSKADLSGMSGARDIFISKIVHKSFVEVNEEGTEAAAATAGIATFCMLMPEENFTADHPFLFFIRHNSSGSILFLGRFSSP
inhibition of leukocyte elastase, in words (leukocyte elastase): inhibits | inhibition of proteinase 3, in words (proteinase 3): inhibits

B2: placental bikunin: Kunitz family inhibitor; potent inhibitor of plasmin (protein, UniProt O43291 28-252, looked up)
Kunitz-type protease …: ADRERSIHDFCLVSKVVGRCRASMPRWWYNVTDGSCQLFVYGGCDGNSNNYLTKEECLKKCATVTENATGDLATSRNAADSSVPSAPRRQDSEDHSSDMFNYEEYCTANAVTGPCRASFPRWYFDVERNSCNNFIYGGCRGNKNSYRSEEACMLRCFRQQENPPLPLGSKVVVLAGLFVMVLILFLGASMVYLIRVARRNQERALRTVWSSGDDKEQLVKNTYVL
Ki (chymotrypsin; read-out: Ki, chymotrypsin): 0.48 nM | inhibition of leukocyte elastase, in words (leukocyte elastase): not leukocyte elastase | inhibition of plasmin, in words (plasmin): potent inhibitor | Ki (trypsin): 0.01 nM

B5: Alpha-1-antichymotrypsin: serpin family proteinase inhibitor (protein, UniProt P01011 24-423, looked up)
Alpha-1-antichymotrypsin: HPNSPLDEENLTQENQDRGTHVDLGLASANVDFAFSLYKQLVLKAPDKNVIFSPLSISTALAFLSLGAHNTTLTEILKGLKFNLTETSEAEIHQSFQHLLRTLNQSSDELQLSMGNAMFVKEQLSLLDRFTEDAKRLYGSEAFATDFQDSAAAKKLINDYVKNGTRGKITDLIKDLDSQTMMVLVNYIFFKAKWEMPFDPQDTHQSRFYLSKKKWVMVPMMSLHHLTIPYFRDEELSCTVVELKYTGNASALFILPDQDKMEEVEAMLLPETLKRWRDSLEFREIGELYLPKFSISRDYNLNDILLQLGIEEAFTSKADLSGITGARNLAVSQVVHKAVLDVFEEGTEASAATAVKITLLSALVETRTIVRFNRPFLMIIVPTDTQNIFFMSKVTNPKQA
inhibition of proteinase 3, in words (proteinase 3): not proteinase 3 | inhibition of cathepsin G, in words (cathepsin G): inhibits

Continued, in another order:

Ki (leukocyte elastase; read-out: Ki, elastase): 0.6 nM | inhibition of proteinase 3, in words (proteinase 3): not proteinase 3 | inhibition of cathepsin G, in words (cathepsin G): not
B3: Antileukoproteinase (SLPI): member of the mucous proteinase inhibitor family (protein, UniProt P03973 26-132, looked up)
Antileukoproteinase: SGKSFKAGVCPPKKSAQCLRYKKPECQSDWQCPGKKRCCPDTCGIKCLDPVDTPNPTRRKPGKCPVTYGQCLMLNPPNFCEMDGQCKRDLKCCMGMCGKSCVSPVKA

Ki (chymotrypsin; read-out: Ki(1), chymotrypsin): 1000 nM | Ki (chymotrypsin; read-out: Ki(2), chymotrypsin): 300 nM | inhibition of trypsin, in words (trypsin): potent
B4: STI: Kunitz family inhibitor of trypsin from soybean (protein, UniProt P01070 25-205, looked up)
Trypsin inhibitor A: DFVLDNEGNPLENGGTYYILSDITAFGGIRAAPTGNERCPLTVVQSRNELDKGIGTIISSPYRIRFIAEGHPLSLKFDSFAVIMLCVGIPTEWSVVEDLPEGPAVKIGENKDAMDGWFRLERVSDDEFNNYKLVFCPQQAEDDKCGDIGISIDHDDGTRRLVVSKNKPLVVQFQKLDKESL
inhibition of chymotrypsin, in words (chymotrypsin): significantly weaker inhibitor | inhibition of neutrophil-induced ECM solubilization [1]: completely or nearly completely inhibit | ET-1 degradation (activated neutrophils): abolishes ET-1 degradation almost completely

Ki (leukocyte elastase; read-out: Ki, leukocyte elastase): 0.37 nM | inhibition of proteinase 3, in words (proteinase 3): only weakly inhibits | Ki (cathepsin G): ~0.1 nM
B6: Eglin C: member of the potato inhibitor 1 family from leech Hirudo medicinalis (protein, UniProt P01051 1-70, looked up)
Eglin C: TEFGSELKSFPEVVGKTVDQAREYFTLHYPQYDVYFLPEGSPVTLDLRYNRVRVFYNPGTNVVNHVPHVG
protection against leukocyte elastase-induced emphysema / pulmonary hemorrhage [2]: completely protected
